Patent US20240360238A1 (MAGENTA THERAPEUTICS, published 2024)
Substitutions are numbered along the chain they refer to.

B1: HC-85/LC-85 ADC (Ab85 conjugated to an amatoxin) (antibody, V domains shown)
VH: EVQLVQSGAEVKKPGESLKISCKGSGYSFTNYWIGWVRQMPGKGLEWMAIINPRDSDTRYRPSFQGQVTISADKSISTAYLQWSSLKASDTAMYYCARHGRGYEGYEGAFDIWGQGTLVTVSS
VL: DIQMTQSPSSLSASVGDRVTITCRSSQGIRSDLGWYQQKPGKAPKLLIYDASNLETGVPSRFSGSGSGTDFTLTISSLQPEDFATYYCQQANGFPLTFGGGTKVEIK
modifications: antibody conjugated to an amatoxin; site not stated
B2: HC-85/LC-85 (Ab85) (antibody, V domains shown)
VH: B1 VH
VL: B1 VL
notes: Purified IgG, hIgG1/hKappa; also called Antibody 85
B3: CD117-ADC (anti-CD117 antibody CK6 conjugated to amatoxin) (antibody, V domains shown)
VH: QVQLVQSGAAVKKPGESLKISCKGSGYRFTSYWIGWVRQMPGKGLEWMGIIYPGDSDTRYSPSFQGQVTISAGKSISTAYLQWSSLKASDTAMYYCARHGRGYNGYEGAFDIWGQGTMVTVSS
VL: AIQLTQSPSSLSASVGDRVTITCRASQGISSALAWYQQKPGKAPKLLIYDASSLESGVPSRFSGSGSGTDFTLTISSLQPEDFATYYCQQFNSYPLTFGGGTKVEIK
modifications: antibody conjugated to an amatoxin; site and linker not stated for this assay
B4: HC-247/LC-247 (Ab247) (antibody, V domains shown)
VH: B3 VH with S31T
VL: DIQMTQSPSSLSASVGDRVTITCRASRGISDYLAWYQQKPGKAPKLLIYDASNLETGVPSRFSGSGSGTDFTLTISSLQPEDFATYYCQQANSFPITFGQGTRLEIK
notes: IgG on anti-human Fc sensors; hIgG1/hKappa
B5: HC-79/LC-79 (Ab79) (antibody, IgG1, V domains shown)
VH: B3 VH with S31T
VL: B3 VL with A1D, I29V, S30G, S53I
notes: Purified human antibody tested as an IgG1; hIgG1/hKappa; also called Antibody 79
B6: HC-245/LC-245 (Ab245) (antibody, V domains shown)
VH: B3 VH with Q1E, A10E, S31T, Y32S, G73D, R101L, M118L
VL: B3 VL with A1D, L4M, S30G, S53T, S93G, G100Q, K103R, V104L
notes: as for B4
B7: HC-249/LC-249 (Ab249) (antibody, V domains shown)
VH: B3 VH with Q1E, A10E, S31T, Y32S, G73D, R101L, M118L
VL: B4 VL with R27Q, S30G, D31S, Y32A, A91L, S93G, F94Y, I96L
notes: as for B4
B8: HC-249/LC-249 ADC (Ab249 conjugated to an amatoxin) (antibody, V domains shown)
VH: B3 VH with Q1E, A10E, S31T, Y32S, G73D, R101L, M118L
VL: B4 VL with R27Q, S30G, D31S, Y32A, A91L, S93G, F94Y, I96L
modifications: antibody conjugated to an amatoxin; site not stated
B9: HC-248/LC-248 (Ab248) (antibody, V domains shown)
VH: B3 VH with Q1E, A10E, S31T, Y32S, G73D, R101L, M118L
VL: B3 VL with A1D, L4M, S30G, S53T, F91L, S93G, G100Q, K103R, V104L
notes: as for B4
B10: HC-77/LC-77 (Ab77) (antibody, IgG1, V domains shown)
VH: B3 VH with S31T
VL: B3 VL with A1D, I29V, S30I, S53I
notes: Purified human antibody tested as an IgG1; hIgG1/hKappa; also called Antibody 77
B11: HC-81/LC-81 (Ab81) (antibody, IgG1, V domains shown)
VH: B3 VH with S31T
VL: B3 VL with A1D, I29V, S30I, S53T
notes: Purified human antibody tested as an IgG1; hIgG1/hKappa; also called Antibody 81
B12: HC-246/LC-246 (Ab246) (antibody, V domains shown)
VH: B3 VH with S31T
VL: B3 VL with A1D, L4M, S30G, S53T, S93G, G100Q, K103R, V104L
notes: as for B4
B13: HC-1/LC-1 (Ab1) (antibody, IgG1, V domains shown)
VH: B3 VH with S31T
VL: B3 VL with I29V
notes: Purified IgG (IgG1); also called 001; CK6 derivative Ab1

Tests used:
[1] = target: T1, CD117 on Kasumi-1 cells and primary human CD34+ bone marrow cells (human, UniProt P10721 26-976); test: cell-based or functional assay
[2] = target: T1, CD117 on Kasumi-1 cells and primary …; test: cell-based or functional assay; remark: listed apart in the source
[3] = target: T2, purified human CD117 ectodomain (R&D Systems #332-SR) (human, UniProt P10721 26-524); test: BLI, IgG on anti-human Fc sensor, 33 and 11 nM ectodomain;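 further: Kd, kon and koff are apparent values, with Kd reported as the apparent monovalent affinity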
T2 construct: extracellular domain; Bought protein; also called c-kit; purified recombinant human CD117 ectodomain

[4] = target: T2, purified human CD117 ectodomain (R&D …); test: BLI (Octet Red96), IgG on anti-human Fc sensor, 33.3 and 11 nM ectodomain
[5] = target: T2, purified human CD117 ectodomain (R&D …); test: BLI; kdis compared to HC-1/LC-1 (Ab1)
[6] = target: T1, CD117 on Kasumi-1 cells and primary …; test: cell-based or functional assay; remark: listed apart in the source
[7] = target: T2, purified human CD117 ectodomain (R&D …); test: BLI (Octet Red96), IgG1 on anti-human Fc sensor, 33.3 and 11 nM ectodomain, 1:1 fit
[8] = target: T2, purified human CD117 ectodomain (R&D …); test: BLI, purified IgG on sensor, soluble ectodomain; apparent monovalent

T2 sequence (P10721 26-524): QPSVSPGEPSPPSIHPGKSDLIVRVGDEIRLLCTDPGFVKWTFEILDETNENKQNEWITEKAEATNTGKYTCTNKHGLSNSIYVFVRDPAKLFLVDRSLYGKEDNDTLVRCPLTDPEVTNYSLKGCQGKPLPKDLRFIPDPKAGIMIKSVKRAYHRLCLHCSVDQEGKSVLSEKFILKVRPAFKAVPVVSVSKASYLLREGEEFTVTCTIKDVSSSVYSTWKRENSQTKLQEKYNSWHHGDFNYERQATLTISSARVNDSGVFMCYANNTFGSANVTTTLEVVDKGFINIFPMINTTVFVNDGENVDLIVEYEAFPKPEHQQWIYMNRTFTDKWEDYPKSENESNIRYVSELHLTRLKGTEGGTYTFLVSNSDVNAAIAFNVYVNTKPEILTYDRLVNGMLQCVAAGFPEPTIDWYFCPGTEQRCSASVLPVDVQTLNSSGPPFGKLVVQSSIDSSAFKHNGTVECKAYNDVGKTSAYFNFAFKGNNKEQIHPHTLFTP
T1 sequence (P10721 26-976): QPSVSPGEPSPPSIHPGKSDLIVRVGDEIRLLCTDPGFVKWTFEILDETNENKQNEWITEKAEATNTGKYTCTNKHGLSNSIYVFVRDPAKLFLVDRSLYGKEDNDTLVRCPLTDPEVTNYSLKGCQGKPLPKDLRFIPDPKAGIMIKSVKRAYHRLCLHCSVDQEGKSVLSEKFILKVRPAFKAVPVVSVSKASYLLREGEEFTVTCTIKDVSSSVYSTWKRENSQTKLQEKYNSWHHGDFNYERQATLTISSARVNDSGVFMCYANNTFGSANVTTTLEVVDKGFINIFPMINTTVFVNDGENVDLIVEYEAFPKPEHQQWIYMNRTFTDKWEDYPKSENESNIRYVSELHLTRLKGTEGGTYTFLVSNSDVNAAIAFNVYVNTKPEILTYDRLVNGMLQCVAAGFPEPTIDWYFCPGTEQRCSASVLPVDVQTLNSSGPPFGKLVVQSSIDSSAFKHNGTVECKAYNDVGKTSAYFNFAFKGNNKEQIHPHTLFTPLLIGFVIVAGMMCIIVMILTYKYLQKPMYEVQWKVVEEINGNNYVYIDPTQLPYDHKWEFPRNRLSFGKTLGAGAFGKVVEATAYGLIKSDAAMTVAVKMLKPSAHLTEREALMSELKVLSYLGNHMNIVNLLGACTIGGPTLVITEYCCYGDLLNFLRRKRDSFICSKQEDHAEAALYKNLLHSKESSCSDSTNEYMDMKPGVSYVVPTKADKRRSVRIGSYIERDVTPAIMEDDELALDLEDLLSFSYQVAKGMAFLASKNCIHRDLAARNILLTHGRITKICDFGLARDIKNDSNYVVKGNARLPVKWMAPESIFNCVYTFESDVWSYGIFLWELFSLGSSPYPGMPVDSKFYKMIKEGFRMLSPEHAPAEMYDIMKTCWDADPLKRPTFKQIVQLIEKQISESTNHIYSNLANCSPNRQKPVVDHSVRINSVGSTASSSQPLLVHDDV

Binder | Kd [3] [nM] | koff [3] [s⁻¹] | kon [3] [M⁻¹ s⁻¹] | Fold improvement (off-rate) [5] [fold] | Kd [7] [nM] | koff [7] [s⁻¹] | kon [7] [M⁻¹ s⁻¹] | also measured
B1 | – | – | – | – | – | – | – | % efficacy, killing of primary human CD34+CD90+ cells [1]: 71.2%; IC50, killing of primary human CD34+CD90+ cells (5 days, flow cytometry counts) [1]: 0.00574 nM; IC50 (M), Kasumi-1 cell killing (Celltiter Glo, 3 days) [2]: 1.76e-11 M
B2 | 0.835 | 0.000434 | 520000 | 5.2 | – | – | – | Kd [4]: 0.835 nM; koff [4]: 0.000434 s⁻¹; kon [4]: 520000 M⁻¹ s⁻¹
B3 | – | – | – | – | – | – | – | % efficacy, killing of primary human CD34+CD90+ cells [1]: 70.8%; IC50, killing of primary human CD34+CD90+ cells (5 days, flow cytometry counts) [1]: 0.00977 nM; IC50 (M), Kasumi-1 cell killing (Celltiter Glo, 3 days) [2]: 1.48e-11 M; IC50, in vitro killing of Kasumi-1 cells (Celltiter Glo) [6]: 1600 nM; IC50, in vitro killing of primary human CD34+ bone marrow cells [6]: 21000 nM
B4 | 1.68 | 0.00063 | 374000 | 3.6 | – | – | – | –
B5 | 1.52 | 0.000478 | 316000 | 4.7 | 1.52 | 0.000478 | 316000 | –
B6 | 0.813 | 0.000285 | 350000 | 7.9 | – | – | – | –
B7 | 0.551 | 0.000189 | 344000 | 12 | – | – | – | –
B8 | – | – | – | – | – | – | – | % efficacy, killing of primary human CD34+CD90+ cells [1]: 52%; IC50, killing of primary human CD34+CD90+ cells (5 days, flow cytometry counts) [1]: 0.00667 nM; IC50 (M), Kasumi-1 cell killing (Celltiter Glo, 3 days) [2]: 2.5e-11 M
B9 | 0.922 | 0.000319 | 346000 | 7.1 | – | – | – | –
B10 | 0.684 | 0.000215 | 315000 | 10.5 | 0.684 | 0.000215 | 315000 | –
B11 | 0.877 | 0.000252 | 288000 | 9 | 0.877 | 0.000252 | 288000 | –
B12 | 0.708 | 0.000255 | 361000 | 8.9 | – | – | – | –
B13 | 4.09 | 0.00227 | 556000 | – | 3.1 | 0.0013 | 420000 | Kd [4]: 4.09 nM; koff [4]: 0.00227 s⁻¹; kon [4]: 556000 M⁻¹ s⁻¹; Kd [8]: 2.81 nM; koff [8]: 0.000848 s⁻¹; kon [8]: 302000 M⁻¹ s⁻¹
